# Measurements as given in the nanobody polyreactivity screen of Harvey et al. (2022).
# Assay: yeast display, Sf9 membrane polyspecificity reagent, FACS + sequencing; frameworks hold sequencing errors
# Method in brief: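 Galactose-induced (36–48 hours) yeast carrying a synthetic nanobody display library were exposed to 10% biotinylated, detergent-solubilized Sf9 membrane reagent at 4 °C for 1 hour. FACS followed streptavidin microbead enrichment, using low and high (top ~1%) gates for expression (anti-HA) and reagent binding (streptavidin). Colony PCR, MiSeq 2 × 250 sequencing and CDR-length filtering followed. Labels for polyreactivity reflect the gate of origin.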
row,Sequence,polyreactivity (PSR sort gate)
1,QVQLVESGGGLVQAGGSLRLSCAASGFTFYSYAMGWYRQAPGKEREFVAAGSTYYADSVKGRFTISRGNAKNTVYLQMNSLKPEDTAVYYCAADPWIYVQSYGYWGQGTQVTVSS,low polyreactivity
2,QVQLVESGGGLVQAGGSLRLSCAASGFTFYSYAMGWYRQAPGKERELVAAISKRGGDTSYADSVKGRFTISRDNAKNTVYLQMNSLKPEDTAVYYCAKVYVPYGSSGGFLSRYNYWGQGTQVTVSS,high polyreactivity
3,QVQLVESGGGLVQAGGSLRLSCAASGFTFYSYAMGWYRQAPGKERELVAAITRSGGSTRYADSVKGRFTISRDNAKNTVYLQMNSLKPEDTAVYYCAARFVRNYVYKYNYWGQGTQVTVSS,high polyreactivity
4,QVQLVESGGGLVQAGGSLRLSCAASGFTFYSYAMGWYRQAPGKERELVAGISRSGGSTYYADSVKGRFTISRDNAKNTVYLQMNSLKPEDTAVYYCNVRLRKKIQNSKYDYWGQGTQVTVSS,high polyreactivity
5,QVQLVESGGGLVQAGGSLRLSCAASGFTFYTNAMGWYRQAPGKERELVAAISKRGASTYYADSVKGRFTISRDNAKNTFYLQMYSLKPEDTAVYYCAASSRTHGSYYYWGQGTQVTVSS,high polyreactivity
6,QVQLVESGGGLVQAGGSLRLSCAASGFTFYTNAMGWYRQAPGKERELVAGINSGSSTYYADSVKGRFTISRDNAKNTVYLQMNSLKPEDTAVYYCAARARRRYYYWGQGTQVTVSS,high polyreactivity
7,QVQLVESGGGLVQAGGSLRLSCAASGFTFYTNTMGWYRQAPGKERELVAVISRTGGSTYYADSVKGRFTISRDNANNTVYLQMKSLKPEDTAVYYCAKRGQWPYDYFIGNYWGQGSQVTVSS,high polyreactivity
8,QVQLVESGGGLVQAGGSLRLSCAASGFTFYTYALGWYRQAPGKEWELVAAITSGGGTYYADSVKGRFTISRDNAKNTVYLQMNSLKPEDTAVYYCNRASRRGYYYPYNYWGQGTQVTVSS,high polyreactivity
9,QVQLVESGGGLVQAGGSLRLSCAASGFTFYTYVKGWYRQAPGKERELVAAITSGVSTNYADSVKGRFTISRDNAKNTVYLQMNSVKPEDTAVYYFNKTFLFLEYDSWGQGTQVTVSS,low polyreactivity
10,QVQLVESGGGLVQAGGSLRLSCAASGFTFYVNAMGWYRQAPGKERELVAVISTGGSTYYADSVKGRFTISRDNAKNTVYLQMNSLKPEDTAVYYCAKRDLPDRSGTPNVIPFDYWGQGTQVTVSS,low polyreactivity
11,QVQLVESGGGLVQAGGSLRLSCAASGFTFYVYAMGWYRQAPGKEREFVAAISSSGGSTYYADSVKGRFTISRDNAKNTVYLQMNSLKPEDTAVYYSAALAYSTTRGRLDYWGQGTQVTVSS,high polyreactivity
12,QVQLVESGGGLVQAGGSLRLSCAASGFTFYVYAMGWYRQAPGKERELVAAISRSGGSTYYADSVKGRFTISRDNAKNTVYLQMNSLKPEDTAVYYFAVVQRYWSPGIVPYVYWGQGTQVTVSS,high polyreactivity
13,QVQLVESGGGLVQAGGSLRLSCAASGFTFYWYTMGWNRQAPGKERELVAAISRRGGSTSYADSVKGRFTISRDNAKNTVYLQMNSLKPEDTAVYYCAKTPGWTDYDYWGQGTQVTVSS,high polyreactivity
14,QVQLVESGGGLVQAGGSLRLSCAASGFTFYYNAMGGYRQAPGKEREFVAGITRTGGSTYYADSVKGRFTISRDNAMNTVYLQIKSLKPEDTAVYYCAATHYYYGTSRYDYWGQVTQVTVSS,high polyreactivity
15,QVQLVESGGGLVQAGGSLRLSCAASGFTFYYNAMGWYRQAPGKERELVAAISWTGGSTRYADSVKGRFTISRDNAKNTVYLQMNSLKPEDTAVYYCAARGYNYWGQGTQVTVSS,high polyreactivity
16,QVQLVESGGGLVQAGGSLRLSCAASGFTFYYNAMGWYRQAPGKERELVASITRSGGRTYYADSVKGRFTISRDNAMNTVYLKMNSLKPEDTAVYYCARRYPRGYYWGQGTQVTVSS,high polyreactivity
17,QVQLVESGGGLVQAGGSLRLSCAASGFTFYYNAMGWYRQAQGKERELVAAMSRSGGRTYYADSVKGRFTISRDNAKNTVYLQMNSLKPEDTAVYYCNRRTRPDGGESDYWGQGTLVTVSS,high polyreactivity
18,QVQLVESGGGLVQAGGSLRLSCAASGFTFYYYAMGWSRQAPGKERELVASISKRGGTYYADSVKGRFTISRDNAKNTVYLQMNSLKPEDTAVYYCAAGIPRQAYKFYWGQGTQVTVSS,high polyreactivity
19,QVQLVESGGGLVQAGGSLRLSCAASGFTFYYYAMGWYRPAPGKERELVAGITGSGGRTYYADSVKGRFTISRDNAKITVYLQMNSLKPEDTAVYYSNARSLWYDYWGQGTQVTVSS,high polyreactivity
20,QVQLVESGGGLVQAGGSLRLSCAASGFTFYYYAMGWYRQAPGKERELVAAISISGASTYYADSVKGRFTISRDNAKNTVYLQMNSLKPEETAVDYCAKRTKGYTYHHEYGYWGQGTQVTVSS,low polyreactivity
21,QVQLVESGGGLVQAGGSLRLSCAASGFTFYYYAMGWYRQAPGKERELVAAISRSGGSTYYADSVKGRFTISRDNAKNTVYLQMNSLKPEDTAVYYCAARRLVGAERPGYDYWGQGTQVTVSS,high polyreactivity
22,QVQLVESGGGLVQAGGSLRLSCAASGFTFYYYAMGWYRQAPGKERELVAAISTRDGNTYYADSVKGRFTISRDNAKNTVYLQMNSLKPEDTAVYYCAADYFRYYPYDYSGQGTQVTVSS,low polyreactivity
23,QVQLVESGGGLVQAGGSLRLSCAASGFTFYYYAMGWYRQAPGKERELVAAITWSGDSTNYADSVKGRFTISRDNAKNTVYLQMNSLKPEDTAVYYCATESYDSYGLYDYWGQGTQVTVSS,low polyreactivity
24,QVQLVESGGGLVQAGGSLRLSCAASGFTFYYYAMGWYRQSPGKERELVAAISWNGGRTYYADSVKGRFTISRDTAKNNVYLQMNSLKPEDTAVYYCDTGYPIDLGREFDYWGQGIQVTVSS,high polyreactivity
25,QVQLVESGGGLVQAGGSLRLSCAASGFTFYYYDMGWYRQAPGKERELVAAITTGGSTKYADSVKGRFTISRDNAKNTVYLQMNSLKPEDTAVYYCNADDSVYVFSKYDYWGQGTQVTVSS,high polyreactivity
26,QVQLVESGGGLVQAGGSLRLSCAASGFTFYYYTMGGSRQAPGKERELVAAITSRGGNTYYADSVKGRFTISRDYAKNTVYLQMNSLNPEDTAVYYCAACRFSSRGYGYWGQGTQVTVSS,high polyreactivity
27,QVQLVESGGGLVQAGGSLRLSCAASGFTFYYYTMGRYRQAPGKEIELLADISSGDRTYYADSVKGRFTISRDNAKNTVYLQMNSLKPEDTAVYYCAAPAKYYTRFGHYNLNQDYDSWGQGTQVTVSS,low polyreactivity
28,QVQLVESGGGLVQAGGSLRLSCAASGFTIAQNVMGWYRQAPGKERELVAAISVSGGSTYYADSVKGRFTISRDNAKNTVYLQMNSLKPEDTAVYYCNAVAGVTKRVDLSRSGYWGLGTQVTVSS,high polyreactivity
29,QVQLVESGGGLVQAGGSLRLSCAASGFTIASNAMGWYRQAPGKERELVAAIRRSGSRTYYADSVKGRFTISRDNAKNTVYLQMNSLKPEDTAVYYCAVVSPRQSYYYWGQGTQVTVSS,high polyreactivity
30,QVQLVESGGGLVQAGGSLRLSCAASGFTIDSYAMGWYRQAPGTERELVAAISYRGGTTYYADSVKGRFTISRDNAKNTVYLQMNSLKPEDTAVYYCNRMWKYGFNYWGQGTQVTVSA,high polyreactivity
